Data: article PMC9408853

Legend:
[1] = target: human C-C chemokine receptor type 7 (human) (UniProt P32248)
[2] = target: CCR7-LgBiT (human) (UniProt P32248)
[3] = target: human C-C chemokine receptor type 7 (human) (UniProt P32248); remark: listed apart in the source

G protein activation, Gαi-1 (nanoBRET, Gαi1-91-NLuc with Gγ2-LSS-mKATE2) in HEK293 cells stably expressing CCR7, pEC50 [1] | G protein activation, Gαi-2 (nanoBRET, Gαi2-91-NLuc with Gγ2-LSS-mKATE2) in HEK293 cells stably expressing CCR7, pEC50 [1] | G protein activation, Gαi-3 (nanoBRET, Gαi3-91-NLuc with Gγ2-LSS-mKATE2) in HEK293 cells stably expressing CCR7, pEC50 [1] | inhibition of forskolin-induced cAMP production (GloSensor) in HEK293 cells stably expressing CCR7, pEC50 [1] | ligand-induced CCR7 internalisation (flow cytometry of surface CCR7, 30 min at 37 °C) in HEK293 cells stably expressing CCR7, pEC50 [1] | ligand-induced β-arrestin2 recruitment to CCR7 (NanoBiT, CCR7-LgBiT with SmBiT-β-arrestin2 in HEK293 cells), pEC50 [2] | cellular electrical impedance of HEK293 cells stably expressing CCR7, AUC[0–120], pEC50 [3] | Substance
8.64 pEC50 (M) | 9.02 pEC50 (M) | 9.61 pEC50 (M) | 7.83 pEC50 (M) | 7.7 pEC50 (M) | 7.61 pEC50 (M) | 8.2 pEC50 (M) | C-C chemokine ligand 19 (from UniProt Q99731 22-98)
8.44 pEC50 (M) | 8.72 pEC50 (M) | 9.34 pEC50 (M) | 7.67 pEC50 (M) | 6.73 pEC50 (M) | 6.48 pEC50 (M) | 6.93 pEC50 (M) | C-C chemokine ligand 21 (from UniProt O00585 24-134)
